Test results from IntAct's records for PubMed 18171471.

B1: Focal adhesion kinase 1 (Gallus gallus (Chicken)), Q00944 (parent)
chain: MAAAYLDPNLNHTPSSSAKTHLGTGMERSPGAMERVLKVFHYFENSSEPTTWASIIRHGDATDVRGIIQKIVDCHKVKNVACYGLRLSHLQSEEVHWLHLDMGVSNVREKFELAHPPEEWKYELRIRYLPKGFLNQFTEDKPTLNFFYQQVKNDYMLEIADQVDQEIALKLGCLEIRRSYGEMRGNALEKKSNYEVLEKDVGLRRFFPKSLLDSVKAKTLRKLIQQTFRQFANLNREESILKFFEILSPVYRFDKECFKCALGSSWIISVELAIGPEEGISYLTDKGANPTHLADFNQVQTIQYSNSEDKDRKGMLQLKIAGAPEPLTVTAPSLTIAENMADLIDGYCRLVNGATQSFIIRPQKEGERALPSIPKLANNEKQGVRSHTVSVSETDDYAEIIDEEDTYTMPSTRDYEIQRERIELGRCIGEGQFGDVHQGIYMSPENPAMAVAIKTCKNCTSDSVREKFLQEALTMRQFDHPHIVKLIGVITENPVWIIMELCTLGELRSFLQVRKFSLDLASLILYAYQLSTALAYLESKRFVHRDIAARNVLVSATDCVKLGDFGLSRYMEDSTYYKASKGKLPIKWMAPESINFRRFTSASDVWMFGVCMWEILMHGVKPFQGVKNNDVIGRIENGERLPMPPNCPPTLYSLMTKCWAYDPSRRPRFTELKAQLSTILEEEKLQQEERMRMESRRQVTVSWDSGGSDEAPPKPSRPGYPSPRSSEGFYPSPQHMVQPNHYQVSGYSGSHGIPAMAGSIYPGQASLLDQTDSWNHRPQEVSAWQPNMEDSGTLDVRGMGQVLPTHLMEERLIRQQQEMEEDQRWLEKEERFLVMKPDVRLSRGSIEREDGGLQGPAGNQHIYQPVGKPDHAAPPKKPPRPGAPHLGSLASLNSPVDSYNEGVKIKPQEISPPPTANLDRSNDKVYENVTGLVKAVIEMSSKIQPAPPEEYVPMVKEVGLALRTLLATVDESLPVLPASTHREIEMAQKLLNSDLAELINKMKLAQQYVMTSLQQEYKKQMLTAAHALAVDAKNLLDVIDQARLKMISQSRPH

Variants of: B1
Details: with paxi_chick PXN

Q: How did the “effect of a mutation on the interaction” value turn out when I937A was run?
A: The value was “decreasing interaction”.

Q: Which “effect of a mutation on the interaction” value does the source give for E949A;K956A;R963A here?
A: Its value is “decreasing interaction”.
